Experimental data as given in the Human Domainome abundance scans (Beltran et al. 2025).
± gives the uncertainty stated by the source.

experiment: abundance fitness (aPCA) (normalised: wild type 0, dead -1); higher = more abundant; growth selection in yeast, the domain comes from the species named; conditions: Homo sapiens

In order of rising abundance fitness:
1. Transcription factor SOX-4 D102T, Q06945  -0.149 ± 0.05
2. Transcription factor SOX-4 M120L, Q06945  -0.047 ± 0.082

same assay, conditions: Saccharomyces cerevisiae (strain ATCC 204508 / S288c)

In order of rising abundance fitness:
1. E3 ubiquitin-protein ligase RSP5 P362F, P39940  -1.41 ± 0.47
2. E3 ubiquitin-protein ligase RSP5 D351L, P39940  -1.08 ± 0.059
3. E3 ubiquitin-protein ligase RSP5 R340P, P39940  -1 ± 0.063
4. E3 ubiquitin-protein ligase RSP5 D351G, P39940  -0.89 ± 0.046
5. E3 ubiquitin-protein ligase RSP5 P362G, P39940  -0.852 ± 0.044
6. E3 ubiquitin-protein ligase RSP5 P362D, P39940  -0.813 ± 0.097
7. E3 ubiquitin-protein ligase RSP5 G345P, P39940  -0.717 ± 0.084
8. E3 ubiquitin-protein ligase RSP5 D351H, P39940  -0.574 ± 0.21
9. E3 ubiquitin-protein ligase RSP5 Q366C, P39940  -0.572 ± 0.41
10. E3 ubiquitin-protein ligase RSP5 E338L, P39940  -0.499 ± 0.044
11. E3 ubiquitin-protein ligase RSP5 T357E, P39940  -0.477 ± 0.058
12. E3 ubiquitin-protein ligase RSP5 R355D, P39940  -0.462 ± 0.088
13. E3 ubiquitin-protein ligase RSP5 G336A, P39940  -0.447 ± 0.05
14. E3 ubiquitin-protein ligase RSP5 R363E, P39940  -0.443 ± 0.057
15. E3 ubiquitin-protein ligase RSP5 T342E, P39940  -0.377 ± 0.05
16. E3 ubiquitin-protein ligase RSP5 T354F, P39940  -0.374 ± 0.093
17. E3 ubiquitin-protein ligase RSP5 Q339G, P39940  -0.256 ± 0.044
18. E3 ubiquitin-protein ligase RSP5 T356K, P39940  -0.225 ± 0.066
19. E3 ubiquitin-protein ligase RSP5 R363C, P39940  -0.219 ± 0.068
20. E3 ubiquitin-protein ligase RSP5 N353E, P39940  -0.149 ± 0.06
21. E3 ubiquitin-protein ligase RSP5 E332C, P39940  -0.116 ± 0.08
22. E3 ubiquitin-protein ligase RSP5 G324R, P39940  -0.099 ± 0.066
23. E3 ubiquitin-protein ligase RSP5 Q339V, P39940  -0.076 ± 0.045
24. E3 ubiquitin-protein ligase RSP5 S335K, P39940  -0.049 ± 0.045
25. E3 ubiquitin-protein ligase RSP5 T327G, P39940  -0.037 ± 0.046
26. E3 ubiquitin-protein ligase RSP5 Q365F, P39940  -0.034 ± 0.15
27. E3 ubiquitin-protein ligase RSP5 Q365V, P39940  -0.014 ± 0.045
28. E3 ubiquitin-protein ligase RSP5 G324V, P39940  0.005 ± 0.11
29. E3 ubiquitin-protein ligase RSP5 Q339E, P39940  0.006 ± 0.054
30. E3 ubiquitin-protein ligase RSP5 G331D, P39940  0.059 ± 0.087
31. E3 ubiquitin-protein ligase RSP5 S328M, P39940  0.099 ± 0.067
32. E3 ubiquitin-protein ligase RSP5 P343N, P39940  0.116 ± 0.098
33. E3 ubiquitin-protein ligase RSP5 Q366G, P39940  0.131 ± 0.064
34. E3 ubiquitin-protein ligase RSP5 Q365H, P39940  0.167 ± 0.11
35. E3 ubiquitin-protein ligase RSP5 G324K, P39940  0.284 ± 0.14
36. E3 ubiquitin-protein ligase RSP5 T356I, P39940  0.404 ± 0.26
